Assay results published in patent US20160176943A1 (INSERM INSITITUT NATIONAL DE LA SANTE ET DE LA RECHERCHE …, published 2016).

T1: recombinant NKG2D-Fc chimeric protein (UniProt P26718 78-216)
T1 construct: Bought from R&D Systems; also called NKG2D-Fc protein; recombinant NKG2D-Fc chimera protein; not shown: Fc part
T1 sequence (looked up): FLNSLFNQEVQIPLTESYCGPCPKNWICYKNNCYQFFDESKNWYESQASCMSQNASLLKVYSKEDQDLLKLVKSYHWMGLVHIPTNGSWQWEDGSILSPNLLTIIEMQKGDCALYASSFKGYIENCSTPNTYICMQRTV

B1: MICA-D isoform expressed on transfected cells (ligand)
chain: EPHSLRYNLTVLSGDGSVQSGFLAEVHLDGQPFLRCDRQKCRAKPQGQWAEDVLGNKTWDRETRDLTGNGKDLRMTLAHIKDQKEGKVLVLQSHWQTFHVSAVAAAAAAAAAIFVIIIFYVCCCKKKTSAAEGPELVSLQVLDQHPVGTSDHRDATQLGFQPLMSDLGSTGSTEGA
notes: also called isoform D; not shown: C-terminal FLAG tag (three copies of FLAG in 3' from the pCMV-3Tag vector)
B2: MICA-B1 isoform expressed in transfected cells (ligand)
chain: EPHSLRYNLTVLSGDGSVQSGFLAEVHLDGQPFLRCDRQKCRAKPQGQWAEDVLGNKTWDRETRDLTGNGKDLRMTLAHIKDQKEVLQSSDLGHERQEFLEGRCHEDQDTLSRYACRLPAGTTAISKIRRSPEENSAPHGECHPQRGLEGQHYRDMQGFWLLSLEYHTELASGWGKVLVLQSHWQTFHVSAVAAAAAAAAAIFVIIIFYVCCCKKKTSAAEGPELVSLQVLDQHPVGTSDHRDATQLGFQPLMSDLGSTGSTEGA
notes: Alpha1 domain, novel polypeptide region, TM and CYT; also called isoform B1; not shown: C-terminal FLAG tag (three copies of FLAG in 3' from the pCMV-3Tag vector)

Key:
[1] = biological target: NKG2D receptor on NK cells (UniProt P26718); assay: cell-based or functional assay
[2] = biological target: T1, recombinant NKG2D-Fc chimeric protein; assay: NKG2D-Fc staining of COS transfectants, facs and cellular immunofluorescence
Description: FIG. 10. A). MICA-B2 is a novel ligand for the NKG2D receptor. COS cells were transfected with cDNA for WT MICA or MICA isoforms. Forty-eight hours post-transfection cells welle incubated with recombinant NKG2D-Fc chimeric protein. […] Staining was analyzed by fluorescent microscopy and positive signal was converted into black and white picture, positive cells intercating with NKG2D-Fc are shown in black. COS cells transfected with the WT cDNA for MICA are used as positive controls. B) Visualisation of NKG2D binding on MICA-B2 isoform expression analyzed by confocal microscopy on COS-7 transfected cells using a recombinant NKG2D-Fc protein. Transfected cells were detected using an anti-Flag (M2) monoclonal antibody. NKG2D-Fc binding and Flag intracellular detection were achieved 48 h post-transfection before and after cell fixation and permeabilization, respectively. COS cells transfected with the WT cDNA for MICA are used as positive controls. Immunofluorescence staining was obtained using an FITC-labeled secondary antibody and shown in black and white, specific staining appears in white.
To functionally assess a role for the MICA isoforms in immune regulation, the possible interaction of MICA isoforms with NKG2D receptor, the natural receptor of full length MICA, was investigated by facs and by cellular immunofluorescence. […]

Molecule	NKG2D expression on NK (NKL) cells after overnight incubation with soluble protein, flow cytometry [1]	binding result [2]
soluble recombinant isoform MICA-B2 (from UniProt Q29983 24-307) (ligand)	47.5%	–
B1	–	no binding
B2	–	no binding
